B1: IQUB (parent)
chain: CRNCINLQNEAQKRESFLKYKCLL

Variants of: B1
Assay: protein stability index of a GFP-peptide fusion (GPS, HEK-293T) (PSI 1-6); higher = more stable
Settings: c terminus: a fixed tail appended
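Note: lentivirally expressed fusions sorted by FACS into six bins by GFP to DsRed ratio, PSI derived from sequencing read proportions per bin multiplied by bin number.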

Row | Variant | protein stability index
1 | CRNCINLQNIAQKRESFLKYKCLL | 1.35
2 | CRNCINLQNLAQKRESFLKYKCLL | 1.65
3 | CRNCINLQNDAQKRESFLKYKCLL | 1.63
4 | CRNCINLQNTAQKRESFLKYKCLL | 1.71
5 | CRNCINLQNHAQKRESFLKYKCLL | 2.56
6 | CRNCINLQNKAQKRESFLKYKCLL | 2.09
7 | CRNCINLQNMAQKRESFLKYKCLL | 2.14
8 | CRNCINLQNAAQKRESFLKYKCLL | 1.52
9 | CRNCINLQNQAQKRESFLKYKCLL | 2.23
10 | CRNCINLQNFAQKRESFLKYKCLL | 2.7
11 | CRNCINLQNRAQKRESFLKYKCLL | 1.7
12 | CRNCINLQNGAQKRESFLKYKCLL | 1.68
13 | CRNCINLQNCAQKRESFLKYKCLL | 1.71
14 | CRNCINLQNSAQKRESFLKYKCLL | 1.9
15 | CRNCINLQNNAQKRESFLKYKCLL | 1.94
16 | CRNCINLQNPAQKRESFLKYKCLL | 1.37
17 | CRNCINLVNEAQKRESFLKYKCLL | 2.12
18 | CRNCINLRNEAQKRESFLKYKCLL | 2.17
19 | CRNCINLFNEAQKRESFLKYKCLL | 1.59
20 | CRNCINLENEAQKRESFLKYKCLL | 2.53
21 | CRNCINLINEAQKRESFLKYKCLL | 1.72
22 | CRNCINLGNEAQKRESFLKYKCLL | 1.57
23 | CRNCINLCNEAQKRESFLKYKCLL | 2.9
24 | CRNCINLSNEAQKRESFLKYKCLL | 2.82

Row | Variant | protein stability index
25 | CRNCINLWNEAQKRESFLKYKCLL | 2.46
26 | CRNCINLTNEAQKRESFLKYKCLL | 1.61
27 | CRNCINLANEAQKRESFLKYKCLL | 1.63
28 | CRNCINLHNEAQKRESFLKYKCLL | 2.08
29 | CRNCINLDNEAQKRESFLKYKCLL | 1.13
30 | CRNCINLLNEAQKRESFLKYKCLL | 3.13
31 | CRNCINLKNEAQKRESFLKYKCLL | 1.38
32 | CRNCINLPNEAQKRESFLKYKCLL | 1.68
33 | CRNCINLNNEAQKRESFLKYKCLL | 1.87
34 | CRNSINLQNEAQKRESFLKYKCLL | 1.51
35 | CRNQINLQNEAQKRESFLKYKCLL | 2.13
36 | CRNDINLQNEAQKRESFLKYKCLL | 1.98
37 | CRNMINLQNEAQKRESFLKYKCLL | 2.12
38 | CRNHINLQNEAQKRESFLKYKCLL | 1.74
39 | CRNYINLQNEAQKRESFLKYKCLL | 2.51
40 | CRNPINLQNEAQKRESFLKYKCLL | 2
41 | CRNWINLQNEAQKRESFLKYKCLL | 1.41
42 | CRNEINLQNEAQKRESFLKYKCLL | 1.41
43 | CRNFINLQNEAQKRESFLKYKCLL | 2.15
44 | CRNKINLQNEAQKRESFLKYKCLL | 2.15
45 | CRNTINLQNEAQKRESFLKYKCLL | 1.69
46 | CRNGINLQNEAQKRESFLKYKCLL | 1.85
47 | CRNNINLQNEAQKRESFLKYKCLL | 1.93
48 | CRNIINLQNEAQKRESFLKYKCLL | 2.28

Row | Variant | protein stability index
49 | CRNRINLQNEAQKRESFLKYKCLL | 3.13
50 | CRNVINLQNEAQKRESFLKYKCLL | 1.92
51 | CRNLINLQNEAQKRESFLKYKCLL | 1.53
52 | CRNCRNLQNEAQKRESFLKYKCLL | 1.88
53 | CRNCQNLQNEAQKRESFLKYKCLL | 1.97
54 | CRNCDNLQNEAQKRESFLKYKCLL | 2.05
55 | CRNCNNLQNEAQKRESFLKYKCLL | 2.33
56 | CRNCENLQNEAQKRESFLKYKCLL | 2.53
57 | CRNCGNLQNEAQKRESFLKYKCLL | 1.83
58 | CRNCPNLQNEAQKRESFLKYKCLL | 2.04
59 | CRNCLNLQNEAQKRESFLKYKCLL | 2.16
60 | CRNCKNLQNEAQKRESFLKYKCLL | 1.45
61 | CRNCMNLQNEAQKRESFLKYKCLL | 1.8
62 | CRNCYNLQNEAQKRESFLKYKCLL | 2.21
63 | CRNCHNLQNEAQKRESFLKYKCLL | 1.8
64 | CRNCSNLQNEAQKRESFLKYKCLL | 1.89
65 | CRNCWNLQNEAQKRESFLKYKCLL | 1.4
66 | CRNCVNLQNEAQKRESFLKYKCLL | 1.61
67 | CRNCTNLQNEAQKRESFLKYKCLL | 1.71
68 | CRNCANLQNEAQKRESFLKYKCLL | 1.79
69 | CRNCCNLQNEAQKRESFLKYKCLL | 1.64
70 | CRNCINLQNEAQTRESFLKYKCLL | 2.04
71 | CRNCINLQNEAQCRESFLKYKCLL | 1.17
72 | CRNCINLQNEAQHRESFLKYKCLL | 2.74

Row | Variant | protein stability index
73 | CRNCINLQNEAQNRESFLKYKCLL | 1.85
74 | CRNCINLQNEAQGRESFLKYKCLL | 2.04
75 | CRNCINLQNEAQMRESFLKYKCLL | 1.8
76 | CRNCINLQNEAQIRESFLKYKCLL | 2.01
77 | CRNCINLQNEAQERESFLKYKCLL | 1.29
78 | CRNCINLQNEAQYRESFLKYKCLL | 1.73
79 | CRNCINLQNEAQQRESFLKYKCLL | 1.75
80 | CRNCINLQNEAQFRESFLKYKCLL | 2.35
81 | CRNCINLQNEAQWRESFLKYKCLL | 2.06
82 | CRNCINLQNEAQARESFLKYKCLL | 1.54
83 | CRNCINLQNEAQRRESFLKYKCLL | 1.74
84 | CRNCINLQNEAQPRESFLKYKCLL | 2.02
85 | CRNCINLQNEAQVRESFLKYKCLL | 1.78
86 | CRNCINLQNEAQDRESFLKYKCLL | 1.58
87 | CRNCINLQNEAQLRESFLKYKCLL | 2.79
88 | CRNCINLQNEASKRESFLKYKCLL | 1.31
89 | CRNCINLQNEAIKRESFLKYKCLL | 2.58
90 | CRNCINLQNEAFKRESFLKYKCLL | 2.23
91 | CRNCINLQNEAVKRESFLKYKCLL | 2.12
92 | CRNCINLQNEACKRESFLKYKCLL | 1.81
93 | CRNCINLQNEAPKRESFLKYKCLL | 2.83
94 | CRNCINLQNEAWKRESFLKYKCLL | 2.31
95 | CRNCINLQNEANKRESFLKYKCLL | 1.69
96 | CRNCINLQNEAEKRESFLKYKCLL | 2.29

Row | Variant | protein stability index
97 | CRNCINLQNEADKRESFLKYKCLL | 1.87
98 | CRNCINLQNEAGKRESFLKYKCLL | 1.75
99 | CRNCINLQNEARKRESFLKYKCLL | 1.96
100 | CRNCINLQNEAHKRESFLKYKCLL | 1.75
101 | CRNCINLQNEAMKRESFLKYKCLL | 1.5
102 | CRNCINLQNEATKRESFLKYKCLL | 1.71
103 | CRNCINLQNEAYKRESFLKYKCLL | 2.28
104 | CRNCINLQNEAAKRESFLKYKCLL | 2.34
105 | CRNCINLQNEAKKRESFLKYKCLL | 2.06
106 | CRNCINLQDEAQKRESFLKYKCLL | 2.28
107 | CRNCINLQAEAQKRESFLKYKCLL | 1.84
108 | CRNCINLQHEAQKRESFLKYKCLL | 1.53
109 | CRNCINLQCEAQKRESFLKYKCLL | 1.57
110 | CRNCINLQKEAQKRESFLKYKCLL | 1.98
111 | CRNCINLQSEAQKRESFLKYKCLL | 1.95
112 | CRNCINLQVEAQKRESFLKYKCLL | 1.53
113 | CRNCINLQMEAQKRESFLKYKCLL | 1.39
114 | CRNCINLQREAQKRESFLKYKCLL | 2.42
115 | CRNCINLQGEAQKRESFLKYKCLL | 2.15
116 | CRNCINLQTEAQKRESFLKYKCLL | 1.33
117 | CRNCINLQIEAQKRESFLKYKCLL | 2.01
118 | CRNCINLQWEAQKRESFLKYKCLL | 2.72
119 | CRNCINLQLEAQKRESFLKYKCLL | 2.12
120 | CRNCINLQPEAQKRESFLKYKCLL | 2.33

Row | Variant | protein stability index
121 | CRNCINLQQEAQKRESFLKYKCLL | 1.49
122 | CRNCINLQYEAQKRESFLKYKCLL | 2.32
123 | CRNCINLQEEAQKRESFLKYKCLL | 1.42
124 | CRNCINLQNEAQKIESFLKYKCLL | 2.86
125 | CRNCINLQNEAQKCESFLKYKCLL | 1.64
126 | CRNCINLQNEAQKHESFLKYKCLL | 1.83
127 | CRNCINLQNEAQKEESFLKYKCLL | 1.36
128 | CRNCINLQNEAQKAESFLKYKCLL | 1.02
129 | CRNCINLQNEAQKDESFLKYKCLL | 2.66
130 | CRNCINLQNEAQKFESFLKYKCLL | 2.34
131 | CRNCINLQNEAQKMESFLKYKCLL | 1.39
132 | CRNCINLQNEAQKKESFLKYKCLL | 2.02
133 | CRNCINLQNEAQKNESFLKYKCLL | 2.26
134 | CRNCINLQNEAQKGESFLKYKCLL | 1.67
135 | CRNCINLQNETQKRESFLKYKCLL | 2.8
136 | CRNCINLQNEKQKRESFLKYKCLL | 1.78
137 | CRNCINLQNECQKRESFLKYKCLL | 1.59
138 | CRNCINLQNEMQKRESFLKYKCLL | 2.25
139 | CRNCINLQNEIQKRESFLKYKCLL | 1.82
140 | CRNCINLQNEYQKRESFLKYKCLL | 1.69
141 | CRNCINLQNELQKRESFLKYKCLL | 1.98
142 | CRNCINLQNESQKRESFLKYKCLL | 2.06
143 | CRNCINLQNEVQKRESFLKYKCLL | 1.57
144 | CRNCINLQNEHQKRESFLKYKCLL | 1.66

Row | Variant | protein stability index
145 | CRNCINLQNERQKRESFLKYKCLL | 1.19
146 | CRNCINLQNEPQKRESFLKYKCLL | 1.71
147 | CRNCINLQNEDQKRESFLKYKCLL | 2.08
148 | CRNCINLQNENQKRESFLKYKCLL | 1.56
149 | CRNCINLQNEEQKRESFLKYKCLL | 2.19
150 | CRNCINLQNEQQKRESFLKYKCLL | 1.34
151 | CRNCIILQNEAQKRESFLKYKCLL | 2.59
152 | CRNCIELQNEAQKRESFLKYKCLL | 1.7
153 | CRNCITLQNEAQKRESFLKYKCLL | 1.72
154 | CRNCIDLQNEAQKRESFLKYKCLL | 1.47
155 | CRNCIVLQNEAQKRESFLKYKCLL | 1.88
156 | CRNCILLQNEAQKRESFLKYKCLL | 2.27
157 | CRNCIMLQNEAQKRESFLKYKCLL | 1.46
158 | CRNCIALQNEAQKRESFLKYKCLL | 1.77
159 | CRNCIGLQNEAQKRESFLKYKCLL | 1.91
160 | CRNCICLQNEAQKRESFLKYKCLL | 1.76
161 | CRNCIKLQNEAQKRESFLKYKCLL | 1.76
162 | CRNCIFLQNEAQKRESFLKYKCLL | 2.2
163 | CRNCIPLQNEAQKRESFLKYKCLL | 1.7
164 | CRNCIYLQNEAQKRESFLKYKCLL | 1.48
165 | CRNCIRLQNEAQKRESFLKYKCLL | 2.09
166 | CRNCIWLQNEAQKRESFLKYKCLL | 1.9
167 | CRNCISLQNEAQKRESFLKYKCLL | 2.37
168 | CRNCIQLQNEAQKRESFLKYKCLL | 2.25

Row | Variant | protein stability index
169 | CRNCIHLQNEAQKRESFLKYKCLL | 1.97
170 | CRNCINNQNEAQKRESFLKYKCLL | 2.26
171 | CRNCINAQNEAQKRESFLKYKCLL | 1.75
172 | CRNCINRQNEAQKRESFLKYKCLL | 1.65
173 | CRNCINGQNEAQKRESFLKYKCLL | 2.36
174 | CRNCINPQNEAQKRESFLKYKCLL | 2.21
175 | CRNCINFQNEAQKRESFLKYKCLL | 1.68
176 | CRNCINEQNEAQKRESFLKYKCLL | 2.27
177 | CRNCINSQNEAQKRESFLKYKCLL | 2.29
178 | CRNCINVQNEAQKRESFLKYKCLL | 2.01
179 | CRNCINDQNEAQKRESFLKYKCLL | 2.31
180 | CRNCINMQNEAQKRESFLKYKCLL | 2.39
181 | CRNCINHQNEAQKRESFLKYKCLL | 1.55
182 | CRNCINQQNEAQKRESFLKYKCLL | 1.75
183 | CRNCINYQNEAQKRESFLKYKCLL | 1.86
184 | CRNCINKQNEAQKRESFLKYKCLL | 1.95
185 | CRNCINIQNEAQKRESFLKYKCLL | 1.79
186 | CRNCINCQNEAQKRESFLKYKCLL | 2.13
187 | CRNCINWQNEAQKRESFLKYKCLL | 2.57
188 | CRNCINTQNEAQKRESFLKYKCLL | 1.67

Source: the supplement of paper PMC10567573
